Results on 2 molecules are retold here after US20230159650A1 (SEOUL NATIONAL UNIVERSITY R AND DB FOUNDATION, published 2023).

In the test the target is T1, human FasL where an immunoglobulin (IgG) is combined (huFasL-IgG) (human, UniProt P48023 134-281, limits assumed).
T1 construct: also called IgG-combined FasL; not shown: immunoglobulin (IgG) part
T1 sequence (looked up): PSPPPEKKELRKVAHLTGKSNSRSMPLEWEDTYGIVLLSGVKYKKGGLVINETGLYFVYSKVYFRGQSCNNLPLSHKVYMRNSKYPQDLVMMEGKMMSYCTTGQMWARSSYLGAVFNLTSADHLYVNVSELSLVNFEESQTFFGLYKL
The test can be described thus: flow cytometry on transfected mouse cells. On the procedure:
After transfecting mutated huDR5 DNA to mouse cells and expressing each of DR5 where huDR5-CRD2 was mutated (Table 1, SEQ ID NO: 4), or DR5 where huDR5-CRD3 was mutated (Table 1, SEQ ID NO: 5), flow cytometry was performed using human FasL where an immunoglobulin (IgG) binding only to cells expressing huDR5 was combined (huFasL-IgG), and the result was shown in FIG. 8b.
For orientation: In flow cytometry, cells or beads pass a laser one at a time.

B1: DR5 where huDR5-CRD2 was mutated (Mutation huDR5-CRD2 Protein) (receptor)
chain: ITQQDLAPQQRAAPQQKRSSPSEGLCPPGHHISEDGRDCISCKYGQDYSTHWNDLLACLACTRCAAGEVELSPCTTTRNTVCQCEEGTFREEDSPEMCRKCRTGCPRGMVKVGDCTPWSDIECVHKESGIIIGVTVAAVVLIVAVFVCKSLLWKKVLPYLKGICSGGGGDPERVDRSSQRPGAEDNVLNEIVSILQPTQVPEQEMEVQEPAEPTGVNMLSPGESEHLLEPAEAERSQRRRLLVPANEGDPTETLRQCFDDFADLVPFDSWEPLMRKLGLMDNEIKVAKAEAAGHRDTLYTMLIKWVNKTGRDASVHTLLDALETLGERLAKQKIEDHLLSSGKFMYLEGNADSAMS
notes: Expressed in transfected mouse cells; also called huDR5-CRD2 mutant
On to B1, for which the binding result is recorded as “no binding”.

B2: DR5 where huDR5-CRD3 was mutated (Mutation huDR5-CRD3 Protein) (receptor)
chain: ITQQDLAPQQRAAPQQKRSSPSEGLCPPGHHISEDGRDCISCKYGQDYSTHWNDLLFCLRCTRCDSGEVELSPCTTTRNTVCQCEEGTFREEDAPAMCAKCATGCPRGMVKVGDCTPWSDIECVHKESGIIIGVTVAAVVLIVAVFVCKSLLWKKVLPYLKGICSGGGGDPERVDRSSQRPGAEDNVLNEIVSILQPTQVPEQEMEVQEPAEPTGVNMLSPGESEHLLEPAEAERSQRRRLLVPANEGDPTETLRQCFDDFADLVPFDSWEPLMRKLGLMDNEIKVAKAEAAGHRDTLYTMLIKWVNKTGRDASVHTLLDALETLGERLAKQKIEDHLLSSGKFMYLEGNADSAMS
notes: Expressed in transfected mouse cells; also called huDR5-CRD3 mutant
As to B2, the binding result is recorded as “no binding”.
